Measurements as given in patent US20250152746A1, “BASE EDITING OF ANGPTL3 AND METHODS OF USING SAME FOR TREATMENT OF DISEASE” (Verve Therapeutics, Inc., priority 2020, published 2025).
In the oligonucleotide strings, read from the 5' end, every base follows the letter of its sugar. An asterisk marks phosphorothioate; unmarked linkages are phosphodiester. Other units and linkages are bracketed, terminal groups are in braces. A string of capitals states the bases alone. m = 2'-O-methyl; r = 2'-OH (RNA)

B1: GA401 (nucleic acid)
guide: mU*mC*mA*rGrCrUrCrCrArGrGrCrGrGrUrCrCrUrGrGmGrUrUrUrUrArGmAmGmCmUmAmGmAmAmAmUmAmGmCmAmArGrUrUmArAmArAmUrAmAmGmGmCmUmArGrUmCmCrGrUrUrAmUmCrArAmCmUmUmGmAmAmAmAmAmGmUmGrGmCmAmCmCmGmAmGmUmCmGmGmUmGmCmU*mU*mU*mUmUmUmU
B2: GA402 (nucleic acid)
guide: mU*mC*mA*rGrCrUrCrCrArGrGrCrGrGrUrCrCrUrGrGmGrUrUrUrUrArGmAmGmCmUmArGmAmAmAmUmAmGmCmAmArGrUrUmArAmArAmUrAmAmGmGmCmUmArGrUmCmCrGrUrUrAmUmCrArAmCmUmUrGmAmAmAmAmAmGmUmGrGmCmAmCmCmGmAmGmUmCmGmGmUmGmCmU*mU*mU*mUmUrUmU
B3: GA398 (nucleic acid)
guide: mU*mC*mA*rGrCrUrCrCrArGrGrCrGrGrUrCrCrUrGrGmGrUrUrUrUrArGmAmGmCmUmAmGmAmAmAmUmAmGmCmAmArGrUrUmArAmArAmUrAmAmGmGmCmUmArGrUrCmCrGrUrUrAmUmCrArAmCmUmUmGmAmAmAmAmAmGmUmGmGmCmAmCmCmGmAmGmUmCmGmGmUmGmCmU*mU*mU*mUmUmUmU
B4: GA403 (nucleic acid)
guide: mU*mC*mA*rGrCrUrCrCrArGrGrCrGrGrUrCrCrUrGrGmGrUrUrUrUrArGmAmGmCmUmArGmAmAmAmUmAmGmCmAmArGrUrU*mArAmArAmUrAmAmGmGmCmUmArGrUmCmCrGrUrUrAmUmCrArAmCmUmUrGmAmAmAmAmAmGmUmGrGmCmAmCmCmGmAmGmUmCmGmGmUmGmCmU*mU*mU*mUmUrUmU
B5: GA404 (nucleic acid)
guide: mU*mC*mA*rGrCrUrCrCrArGrGrCrGrGrUrCrCrUrGrGmGrUrUrUrUrArGmAmGmCmUmArGmAmAmAmUmAmGmCmAmArGrUrUmArAmArAmUrAmAmGmGmCmUmArGrUmCmCrGrUrU*rAmUmCrArAmCmUmUrGmAmAmAmAmAmGmUmGrGmCmAmCmCmGmAmGmUmCmGmGmUmGmCmU*mU*mU*mUmUrUmU
B6: GA399 (nucleic acid)
guide: mU*mC*mA*rGrCrUrCrCrArGrGrCrGrGrUrCrCrUrGrGmGrUrUrUrUrArGmAmGmCmUmAmGmAmAmAmUmAmGmCmAmArGrUrUmArAmArAmUrAmAmGmGmCmUmArGmUrCmCrGrUrUmAmUmCrArAmCmUmUmGmAmAmAmAmAmGmUmGmGmCmAmCmCmGmAmGmUmCmGmGmUmGmCmU*mU*mU*mUmUmUmU
B7: GA396 (nucleic acid)
guide: mU*mC*mA*rGrCrUrCrCrArGrGrCrGrGrUrCrCrUrGrGmGrUrUrUrUrArGmAmGmCmUmArGmAmAmAmUmAmGmCmAmArGrUrU*mArAmArAmUrAmAmGmGmCmUmArGrUmCmCrGrUrUrAmUmCrArAmCmUmUrGmAmAmAmAmAmGmUmGrGmCmAmCmCmGmAmGmUmCmGmGmUmGmCmU*mU*mU*mUmUmUmU
B8: GA406 (nucleic acid)
guide: TCAGCTCCAGGCGGTCCTGGGTTTTAGAGCTAGAAATAGCAAGTTAAAATAAGGCTAGTCCGTTATCAACTTGAAAAAGTGGCACCGAGTCGGTGCTTTTTTT
modifications: listed as RNA; modified_base 1: mod_base = OTHER; note = 2'-O-Methyl-uridine phosphorothioate; modified_base 2: mod_base = OTHER; note = 2'-O-Methyl-cytidine phosphorothioate; modified_base 3: mod_base = OTHER; note = 2'-O-Methyl-adenosine phosphorothioate;
B9: GA397 (nucleic acid)
guide: mU*mC*mA*rGrCrUrCrCrArGrGrCrGrGrUrCrCrUrGrGmGrUrUrUrUrArGmAmGmCmUmArGmAmAmAmUmAmGmCmAmArGrUrUmArAmArAmUrAmAmGmGmCmUmArGrUmCmCrGrUrU*rAmUmCrArAmCmUmUrGmAmAmAmAmAmGmUmGrGmCmAmCmCmGmAmGmUmCmGmGmUmGmCmU*mU*mU*mUmUmUmU
B10: GA395 (nucleic acid)
guide: mU*mC*mA*rGrCrUrCrCrArGrGrCrGrGrUrCrCrUrGrGmGrUrUrUrUrArGmAmGmCmUmArGmAmAmAmUmAmGmCmAmArGrUrUmArAmArAmUrAmAmGmGmCmUmArGrUmCmCrGrUrUrAmUmCrArAmCmUmUrGmAmAmAmAmAmGmUmGrGmCmAmCmCmGmAmGmUmCmGmGmUmGmCmU*mU*mU*mUmUmUmU

These molecules were tested on PCSK9 gene (assay: PCSK9 gRNA/SpCas9 editing in primary cynomolgus hepatocytes (Tables 2, 22)). Conditions: SpCas9 mRNA MS002, 625 ng/test article/mL, rep1.
Assay type: cell-based, cynomolgus monkey
Protocol: In set of experiments, PCSK9 gRNAs were co-transfected with an equivalent amount (1:1 ratio by weight) of in vitro transcribed commercially available SpCas9 mRNA MS002 purchased from TriLink Biotechnologies into primary human hepatocytes at 2500, 500, or 100 ng/RNA/mL and processed as described in detailed methods. Extracted genomic DNA was analyzed for gene editing at the target site with next-generation sequencing of PCR amplicons generated around the target sites. Samples were prepared using the Nextera XT DNA library preparation kit (Illumina) according to the manufacturer's protocol. Briefly, two rounds of PCR were performed first to amplify the region of interest and second to add DNA sequences required for next generation sequencing and sample identification to the initial product. The final amplicon was sequenced on the Illumina MiSeq instrument according to the manufacturer's protocol. A wide range of editing activities (Table 2) were observed. In a second set of experiments, ANGPTL3 gRNAs were co-transfected with an equivalent amount of in vitro transcribed SpCas9 mRNA (1:1 ratio by weight) into primary human hepatocytes and processed and analyzed similarly (Table 3).
[…] Genomic DNA was processed, sequenced, and analyzed as described in the detailed methods section. GA266 was transfected independently twice to serve as two positive controls.
Plating, culturing, and transfection of primary hepatocytes. Primary human liver hepatocytes (PHH) and primary cynomolgus liver hepatocytes (PCH) from BioIVT were cultured per the manufacturer's protocol. Briefly, primary human hepatocytes and primary cyno hepatocytes were obtained as frozen aliquots from BioIVT. Four lots of primary human hepatocytes, each derived from a de-identified individual donor, were used for the experiments: STL (main donor) was used for all experiments, including screening experiments and off-target experiments; HLY, JLP, and TLY were used for off-target experiments. The HFG lot of primary cyno hepatocytes were used for experiments. Following the manufacturer's instructions, cells were thawed and rinsed prior to plating in 24-well plates that had been coated with bovine collagen overnight, with a density of approximate 350,000 cells/well in INVITROGRO hepatocyte medium supplemented with TORPEDO antibiotic mix (BioIVT). The cells were thawed and resuspended in hepatocyte thawing medium followed by centrifugation at 100 g for 10 min at 4° C. The supernatant was discarded, and the pelleted cells resuspended in hepatocyte plating medium. Each vial contains approximately 5 million cells that were used for plating one 24-well plate. Plated cells were allowed to settle and adhere for 4-6 h in a tissue culture incubator at 37° C. under 5% CO2 atmosphere. After incubation, cells were checked for monolayer formation. The incubating media were then replaced with fresh hepatocyte maintenance media (complete INVITROGRO medium obtained from BioIVT, the cell line provider). The cells thus became ready for transfection. Each of the gRNAs were co-transfected with an equivalent amount of in vitro transcribed ABE8.8 mRNA (1:1 ratio by molecular weight) into primary human hepatocytes via MessengerMax reagent (Lipofectamine), using various dilutions to assess for editing activity at different concentrations of test article. MessengerMAX from Thermo Fisher is used for transfection. Solution A: desired amount of guide RNA is mixed with 1:1 wt ratio of mRNA in OptiMEM. Solution B: MessengerMAX in OptiMEM. After mixing solutions A and B, the mixture was incubated at room temperature for 20 min. 60 μL of the incubated solution was added dropwise to each cell wells. For protospacer sequences that were a perfect match to the corresponding cynomolgous monkey PCSK9 or ANGPTL3 gene sequence, each gRNA was also co-transfected with an equivalent amount of ABE8.8 mRNA (1:1 ratio by molecular weight) into primary cynomolgous hepatocytes, and followed the same transfection protocol. […]

Point of comparison: B2, “Cynomolgus Primary Hepatocytes-% Editing” value 35.05%. Against it:
- B1 — higher, 38.33%
- B3 — higher, 39.09%
- B4 — higher, 38.28%
- B5 — lower, 31.63%
- B6 — higher, 37.75%
- B7 — higher, 44.44%
- B8 — higher, 37.58%
- B9 — higher, 40.72%
- B10 — lower, 33.87%

Same assay, conditions: SpCas9 mRNA MS002, 625 ng/test article/mL, rep2

Point of comparison: B2, “Cynomolgus Primary Hepatocytes-% Editing” value 40.31%. Against it:
- B1 — lower, 38.77%
- B3 — higher, 44%
- B4 — lower, 35.58%
- B5 — lower, 30.16%
- B6 — higher, 41.8%
- B7 — higher, 41.53%
- B8 — the same, 40.31%
- B9 — higher, 46.28%
- B10 — lower, 34.57%

Same assay, conditions: SpCas9 mRNA MS002, 1250 ng/test article/mL, rep1

Point of comparison: B7, “Cynomolgus Primary Hepatocytes-% Editing” value 56.02%. Against it:
- B1 — lower, 49.12%
- B2 — lower, 44.46%
- B3 — higher, 56.45%
- B4 — lower, 50.5%
- B5 — lower, 41.68%
- B6 — lower, 55.55%
- B8 — lower, 45.11%
- B9 — higher, 56.47%
- B10 — lower, 41.48%

Same assay, conditions: SpCas9 mRNA MS002, 1250 ng/test article/mL, rep2

Point of comparison: B2, “Cynomolgus Primary Hepatocytes-% Editing” value 47.93%. Against it:
- B1 — higher, 48.83%
- B3 — higher, 55.21%
- B4 — lower, 47.13%
- B5 — lower, 35.04%
- B6 — higher, 53.02%
- B7 — higher, 52.02%
- B8 — lower, 43.68%
- B9 — higher, 58.68%
- B10 — lower, 44.35%

Same assay, conditions: SpCas9 mRNA MS002, 2500 ng/test article/mL, rep1

Point of comparison: B1, “Cynomolgus Primary Hepatocytes-% Editing” value 53.74%. Against it:
- B2 — lower, 45.58%
- B3 — higher, 59.85%
- B4 — lower, 52.62%
- B5 — lower, 48.3%
- B6 — higher, 58.97%
- B7 — higher, 53.98%
- B8 — higher, 57.17%
- B9 — higher, 56.65%
- B10 — lower, 43.91%

Same assay, conditions: SpCas9 mRNA MS002, 2500 ng/test article/mL, rep2

Point of comparison: B9, “Cynomolgus Primary Hepatocytes-% Editing” value 58.59%. Against it:
- B1 — lower, 52.79%
- B2 — lower, 55.34%
- B3 — higher, 63.97%
- B4 — lower, 55.84%
- B5 — lower, 50.59%
- B6 — higher, 62.75%
- B7 — lower, 56.84%
- B8 — lower, 51.45%
- B10 — lower, 49.53%
